Test results reported in patent US20040265972A1 (published 2004).

Target: T1, human TSH receptor stably expressed on Chinese Hamster Ovary (CHO) cells (CHO-hTSHR clone JP09 and clone JP26) (human, UniProt P16473 21-764)
T1 construct: whole, on cells; also called hTSH receptor; CHO-JPO9
Test: told in words; bioactivity assay on CHO-JPO9 cells expressing the TSH receptor

B1: mutant TSH heterodimer of wild type human common α-subunit and mutant human TSH-β subunit βE6N (ligand)
alpha: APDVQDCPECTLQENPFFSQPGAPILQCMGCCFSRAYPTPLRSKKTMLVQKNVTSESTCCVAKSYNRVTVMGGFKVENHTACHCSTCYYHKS
beta: FCIPTNYTMHIERRECAYCLTINTTICAGYCMTRDINGKLFLPKYALSQDVCTYRDFIYRTVEIPGCPLHVAPYFSYPVALSCKCGKCNTDYSDCIHEAIKTNYCTKPQKSYLVGFSV
modifications: Both subunits are N-glycosylated (secreted from CHO-K1 cells). They form a noncovalent heterodimer. The letters carry neither feature.
notes: Transiently expressed in CHO-K1 cells
B1: binds.
